For 41 variants, self-cleavage results are on record in the RNAGym collection of RNA variant scans (doi:10.7554/elife.90254).

First the molecules themselves.
B1: OR4K15 (parent)
chain: GUUAACGGUCAUAGGCCAUGGAAACUAGGAGCACCAUUUCGCUGCCAGUGAAGAAAUGAACAAAGAAAAUCUGGGCCAGGCAGGCAUCAAAAGAAAUAGUCUUGCGCUCAACCAGAAAGUCUGUAAUCAUUUUAAGGGUA

This data set covers variants of B1. Put plainly: self-cleavage, relative activity (ratio to wild type); higher = more cleavage; in vitro, sequencing; the parent is a self-cleaving ribozyme.
Turning to GUUAACGGUCAUAGGCCAUGGAAACUAGGAGCACCAUUUCGCUGCCAGUGAAGAAAUGAACAAAGAAAAUCUGGGCCAGGCAGGCAUCAAUAGAAAUAGACUUGCGCUCAACCAGAAAGUCUGUAAUCAUUUUAAGGGUA [A91U U100A], the self-cleavage is 0.57.

Regarding GUUAACGGUCAUAGGCCAUGGAAACUAGGAGCACCAUUUCGCUGCCAGUGAAGAAAUGAACAAAGAAAAUCUGGGCCAGGCAGGCAUCAAUAGAAAUAGCCUUGCGCUCAACCAGAAAGUCUGUAAUCAUUUUAAGGGUA [A91U U100C], the self-cleavage was 2.82.

As for GUUAACGGUCAUAGGCCAUGGAAACUAGGAGCACCAUUUCGCUGCCAGUGAAGAAAUGAACAAAGAAAAUCUGGGCCAGGCAGGCAUCAAUAGAAAUAGUCUUGCGCUCAACCAGAAUGUCUGUAAUCAUUUUAAGGGUA [A91U A118U], the self-cleavage stood at 1.23.

Turning to GUUAACGGUCAUAGGCCAUGGAAACUAGGAGCACCAUUUCGCUGCCAGUGAAGAAAUGAACAAAGAAAAUCUGGGCCAGGCAGGCAUCAAGAGAAAUAGUCUUGCGCUCAACCAGAAAGUCUGUAACCAUUUUAAGGGUA [A91G U127C], the self-cleavage was determined as 0.78.

As to GUUAACGGUCAUAGGCCAUGGAAACUAGGAGCACCAUUUCGCUGCCAGUGAAGAAAUGAACAAAGAAAAUCUGGGCCAGGCAGGCAUCAAGAGAAAUAGUCUUGCGCUCAACCAGAAAGUCUGUAAACAUUUUAAGGGUA [A91G U127A], the self-cleavage was found to be 2.67.

Consider GUUAACGGUCAUAGGCCAUGGAAACUAGGAGCACCAUUUCGCUGCCAGUGAAGAAAUGAACAAAGAAAAUCUGGGCCAGGCAGGCAUCAAAGGAAAUAGUCUUGCGCUCAACCAGAAAGUCUGUAAUCAUUUUACGGGUA [A92G A135C], for which the self-cleavage is 0.84.

Consider GUUAACGGUCAUAGGCCAUGGAAACUAGGAGCACCAUUUCGCUGCCAGUGAAGAAAUGAACAAAGAAAAUCUGGGCCAGGCAGGCAUCAAUAGAAAUAGUCUUGCGCUCAACCAGAUAGUCUGUAAUCAUUUUAAGGGUA [A91U A117U], for which the self-cleavage is 1.15.

As for GUUAACGGUCAUAGGCCAUGGAAACUAGGAGCACCAUUUCGCUGCCAGUGAAGAAAUGAACAAAGAAAAUCUGGGCCAGGCAGGCAUCAAACGAAAUAGUCUUGCGCUCAACCAGAAAGUCUGUAAUCAUCUUAAGGGUA [A92C U131C], the self-cleavage was 1.35.

Regarding GUUAACGGUCAUAGGCCAUGGAAACUAGGAGCACCAUUUCGCUGCCAGUGAAGAAAUGAACAAAGAAAAUCUGGGCCAGGCAGGCAUCAAUAGAAAUAGUCUUGCGCUCAACCAGAAAGUCUGUAUUCAUUUUAAGGGUA [A91U A126U], the self-cleavage worked out at 1.56.

GUUAACGGUCAUAGGCCAUGGAAACUAGGAGCACCAUUUCGCUGCCAGUGAAGAAAUGAACAAAGAAAAUCUGGGCCAGGCAGGCAUCAAAGGUAAUAGUCUUGCGCUCAACCAGAAAGUCUGUAAUCAUUUUAAGGGUA [A92G A94U]: the self-cleavage is 2.13.

For the variant GUUAACGGUCAUAGGCCAUGGAAACUAGGAGCACCAUUUCGCUGCCAGUGAAGAAAUGAACAAAGAAAAUCUGGGCCAGGCAGGCAUCAAUAGUAAUAGUCUUGCGCUCAACCAGAAAGUCUGUAAUCAUUUUAAGGGUA [A91U A94U], the self-cleavage was 1.87.

On to GUUAACGGUCAUAGGCCAUGGAAACUAGGAGCACCAUUUCGCUGCCAGUGAAGAAAUGAACAAAGAAAAUCUGGGCCAGGCAGGCAUCAAAGGAAAUAGUCUUGCGCUCAACCAGAAAGUCUGUAAUCAUUUUGAGGGUA [A92G A134G], for which the self-cleavage is 0.98.

Regarding GUUAACGGUCAUAGGCCAUGGAAACUAGGAGCACCAUUUCGCUGCCAGUGAAGAAAUGAACAAAGAAAAUCUGGGCCAGGCAGGCAUCAAGAGAAAUAGUCUUGCGCUCAACCAGAAAGUCUGUAAUCAUCUUAAGGGUA [A91G U131C], the self-cleavage came to 1.07.

With GUUAACGGUCAUAGGCCAUGGAAACUAGGAGCACCAUUUCGCUGCCAGUGAAGAAAUGAACAAAGAAAAUCUGGGCCAGGCAGGCAUCAAUAGAAAUAGUCUUGCGCUCAACCAGAAAGCCUGUAAUCAUUUUAAGGGUA [A91U U120C], the self-cleavage was 1.64.

Regarding GUUAACGGUCAUAGGCCAUGGAAACUAGGAGCACCAUUUCGCUGCCAGUGAAGAAAUGAACAAAGAAAAUCUGGGCCAGGCAGGCAUCAAUAGAAAUAGUCUUGCGCUCAACCAGAAAGUCUGAAAUCAUUUUAAGGGUA [A91U U124A], the self-cleavage was 0.84.

Regarding GUUAACGGUCAUAGGCCAUGGAAACUAGGAGCACCAUUUCGCUGCCAGUGAAGAAAUGAACAAAGAAAAUCUGGGCCAGGCAGGCAUCAAGAGAAAUAGUCUUGCGCUCAACCAGAAAGUCGGUAAUCAUUUUAAGGGUA [A91G U122G], the self-cleavage amounted to 2.58.

For GUUAACGGUCAUAGGCCAUGGAAACUAGGAGCACCAUUUCGCUGCCAGUGAAGAAAUGAACAAAGAAAAUCUGGGCCAGGCAGGCAUCAAUAGAAAUAGUCUUGCGCUCAACCAGAAAGUCUGUAAUCAUUUUAAGGAUA [A91U G138A], the self-cleavage is 0.82.

For GUUAACGGUCAUAGGCCAUGGAAACUAGGAGCACCAUUUCGCUGCCAGUGAAGAAAUGAACAAAGAAAAUCUGGGCCAGGCAGGCAUCAAUAGAAAUAGUCUUGCGCUCAACCAGAAAGUCUGUAAUCGUUUUAAGGGUA [A91U A129G], the self-cleavage amounted to 1.13.

With GUUAACGGUCAUAGGCCAUGGAAACUAGGAGCACCAUUUCGCUGCCAGUGAAGAAAUGAACAAAGAAAAUCUGGGCCAGGCAGGCAUCAAAGGAAAUAGUCUUGCGCUCAACCAGAAAGUCUGUGAUCAUUUUAAGGGUA [A92G A125G], the self-cleavage came to 0.79.

In the case of GUUAACGGUCAUAGGCCAUGGAAACUAGGAGCACCAUUUCGCUGCCAGUGAAGAAAUGAACAAAGAAAAUCUGGGCCAGGCAGGCAUCAAAGGAAAUAGUCUUGCGCUCAACCAGAAAGUCUGUUAUCAUUUUAAGGGUA [A92G A125U], the self-cleavage turned out to be 1.59.

Turning to GUUAACGGUCAUAGGCCAUGGAAACUAGGAGCACCAUUUCGCUGCCAGUGAAGAAAUGAACAAAGAAAAUCUGGGCCAGGCAGGCAUCAAACGAAAUAGUCUUGCGCUCAACCAAAAAGUCUGUAAUCAUUUUAAGGGUA [A92C G115A], the self-cleavage came out at 0.36.

Consider GUUAACGGUCAUAGGCCAUGGAAACUAGGAGCACCAUUUCGCUGCCAGUGAAGAAAUGAACAAAGAAAAUCUGGGCCAGGCAGGCAUCAAAGGAAAUAGUCUUGCGCUCAGCCAGAAAGUCUGUAAUCAUUUUAAGGGUA [A92G A111G], for which the self-cleavage came out at 0.02.

As for GUUAACGGUCAUAGGCCAUGGAAACUAGGAGCACCAUUUCGCUGCCAGUGAAGAAAUGAACAAAGAAAAUCUGGGCCAGGCAGGCAUCAAAGGAAAUAGUCUUGCGCUCAACCAGCAAGUCUGUAAUCAUUUUAAGGGUA [A92G A116C], the self-cleavage stood at 0.09.

For GUUAACGGUCAUAGGCCAUGGAAACUAGGAGCACCAUUUCGCUGCCAGUGAAGAAAUGAACAAAGAAAAUCUGGGCCAGGCAGGCAUCAAAGGAAAUAGUCUUGCGCUCAACCAGUAAGUCUGUAAUCAUUUUAAGGGUA [A92G A116U], the self-cleavage turned out to be 0.2.

As for GUUAACGGUCAUAGGCCAUGGAAACUAGGAGCACCAUUUCGCUGCCAGUGAAGAAAUGAACAAAGAAAAUCUGGGCCAGGCAGGCAUCAAAGGAAAUAGUCUUGCGCUCAACCAGGAAGUCUGUAAUCAUUUUAAGGGUA [A92G A116G], the self-cleavage worked out at 0.44.

As to GUUAACGGUCAUAGGCCAUGGAAACUAGGAGCACCAUUUCGCUGCCAGUGAAGAAAUGAACAAAGAAAAUCUGGGCCAGGCAGGCAUCAAAGGAAAUAGUCUUGCGCUCCACCAGAAAGUCUGUAAUCAUUUUAAGGGUA [A92G A110C], the self-cleavage came out at 0.26.

Regarding GUUAACGGUCAUAGGCCAUGGAAACUAGGAGCACCAUUUCGCUGCCAGUGAAGAAAUGAACAAAGAAAAUCUGGGCCAGGCAGGCAUCAAACGAAAUAGUCUUGCGCUCAACCAGAAAGUCUGUAAUCAUUUUAAGGGUA [A92C], the self-cleavage amounted to 1.27.

Turning to GUUAACGGUCAUAGGCCAUGGAAACUAGGAGCACCAUUUCGCUGCCAGUGAAGAAAUGAACAAAGAAAAUCUGGGCCAGGCAGGCAUCAAAGGAAAUAGUCUUGCGCUCAACCAGAAAGUCUGUAAUCAUUUUAAGGGUA [A92G], the self-cleavage was determined as 1.15.

Consider GUUAACGGUCAUAGGCCAUGGAAACUAGGAGCACCAUUUCGCUGCCAGUGAAGAAAUGAACAAAGAAAAUCUGGGCCAGGCAGGCAUCAAAGGAAAUAGUCUUGCGCUCAACCAGAAUGUCUGUAAUCAUUUUAAGGGUA [A92G A118U], for which the self-cleavage is 0.78.

Turning to GUUAACGGUCAUAGGCCAUGGAAACUAGGAGCACCAUUUCGCUGCCAGUGAAGAAAUGAACAAAGAAAAUCUGGGCCAGGCAGGCAUCAAAGGAAAUAGUCUUGCGCUCAACCAGAAAGUCUGUAAUCUUUUUAAGGGUA [A92G A129U], the self-cleavage is 1.16.

As for GUUAACGGUCAUAGGCCAUGGAAACUAGGAGCACCAUUUCGCUGCCAGUGAAGAAAUGAACAAAGAAAAUCUGGGCCAGGCAGGCAUCAAAGGAAAUAGUCUUGCGCUCAACCAGAAAGUCUGUAAUCCUUUUAAGGGUA [A92G A129C], the self-cleavage amounted to 0.59.

As for GUUAACGGUCAUAGGCCAUGGAAACUAGGAGCACCAUUUCGCUGCCAGUGAAGAAAUGAACAAAGAAAAUCUGGGCCAGGCAGGCAUCAAAGGAAGUAGUCUUGCGCUCAACCAGAAAGUCUGUAAUCAUUUUAAGGGUA [A92G A96G], the self-cleavage worked out at 0.99.

Turning to GUUAACGGUCAUAGGCCAUGGAAACUAGGAGCACCAUUUCGCUGCCAGUGAAGAAAUGAACAAAGAAAAUCUGGGCCAGGCAGGCAUCAAAGGAAUUAGUCUUGCGCUCAACCAGAAAGUCUGUAAUCAUUUUAAGGGUA [A92G A96U], the self-cleavage came to 1.84.

With GUUAACGGUCAUAGGCCAUGGAAACUAGGAGCACCAUUUCGCUGCCAGUGAAGAAAUGAACAAAGAAAAUCUGGGCCAGGCAGGCAUCAAUAGAAAUAGUCUUGCGCUCAACCAGAAAGUCUGUAAUCAUUAUAAGGGUA [A91U U132A], the self-cleavage came to 1.98.

As for GUUAACGGUCAUAGGCCAUGGAAACUAGGAGCACCAUUUCGCUGCCAGUGAAGAAAUGAACAAAGAAAAUCUGGGCCAGGCAGGCAUCAAAGGAGAUAGUCUUGCGCUCAACCAGAAAGUCUGUAAUCAUUUUAAGGGUA [A92G A95G], the self-cleavage was 1.46.

With GUUAACGGUCAUAGGCCAUGGAAACUAGGAGCACCAUUUCGCUGCCAGUGAAGAAAUGAACAAAGAAAAUCUGGGCCAGGCAGGCAUCAAUAGAAAUAGUCUCGCGCUCAACCAGAAAGUCUGUAAUCAUUUUAAGGGUA [A91U U103C], the self-cleavage worked out at 0.51.

GUUAACGGUCAUAGGCCAUGGAAACUAGGAGCACCAUUUCGCUGCCAGUGAAGAAAUGAACAAAGAAAAUCUGGGCCAGGCAGGCAUCAAUGGAAAUAGUCUUGCGCUCAACCAGAAAGUCUGUAAUCAUUUUAAGGGUA [A91U A92G]: the self-cleavage amounted to 1.04.

Regarding GUUAACGGUCAUAGGCCAUGGAAACUAGGAGCACCAUUUCGCUGCCAGUGAAGAAAUGAACAAAGAAAAUCUGGGCCAGGCAGGCAUCAAAGGAAAUAGUCUUGCGCUCAACCAGAAAGUCUGUAUUCAUUUUAAGGGUA [A92G A126U], the self-cleavage came to 0.78.

With GUUAACGGUCAUAGGCCAUGGAAACUAGGAGCACCAUUUCGCUGCCAGUGAAGAAAUGAACAAAGAAAAUCUGGGCCAGGCAGGCAUCAAAGGAAAUAGUCUUGCGCUCAACCAGAAAGUCUGUAGUCAUUUUAAGGGUA [A92G A126G], the self-cleavage is 1.18.

With GUUAACGGUCAUAGGCCAUGGAAACUAGGAGCACCAUUUCGCUGCCAGUGAAGAAAUGAACAAAGAAAAUCUGGGCCAGGCAGGCAUCAAAGGAAAUAGUCUUGCGCUCAACCCGAAAGUCUGUAAUCAUUUUAAGGGUA [A92G A114C], the self-cleavage is 0.04.

For GUUAACGGUCAUAGGCCAUGGAAACUAGGAGCACCAUUUCGCUGCCAGUGAAGAAAUGAACAAAGAAAAUCUGGGCCAGGCAGGCAUCAAACGAAAUAGUCUUGCGCUCAACCGGAAAGUCUGUAAUCAUUUUAAGGGUA [A92C A114G], the self-cleavage amounted to 0.98.
